Data: the supplement of paper PMC7877785
± gives the uncertainty stated by the source.

Assay: self-splicing fitness, log relative to wild type (ln ratio); higher = more splicing; Tetrahymena group I intron in knt gene, E. coli kanamycin selection, DiMSum; sequences stand for … in CUCUCU…GGAGGGAAAAGUUAUCAGGCAUGCACCUGGUAGCUAGUCUUUAAACCAAUAGAUUGCAUCGGUUUAAAAGGCAAGACCGUCAAAUUGCGGGAAAGGGGUCAACAGCCGUUCAGUACCAAGUCUCAGGGGAAACUUUGAGAUGGCCUUGCAAAGGGUAUGGUAAUAAGCUGACGGACAUGGUCCUAACCACGCAGCCAAGUCCUAAGUCAACAGAUCUUCUGUUGAUAUGGAUGCAGUUCACAGACUAAAUGUCGGUCGGGGAAGAUGUAUUCUUCUCAUAAGAUAUAGUCGGACCUCUCCUUAAUGGGAGCUAGCGGAUGAAGUGAUGCAACACUGGAGCCGCUGGGAACUAAUUUGUAUGCGAAAGUAUAUUGAUUAGUUUUGGAGUACUCGUGGUCG
In short: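 Six replicate transformations of E. coli BL21(DE3) with a pET-22b(+) library were grown overnight at 37°C or 30°C. The library randomised all eight P1ex-region intron nucleotides, the intron lying in the knt kanamycin-resistance gene, and plates were LB agar with or without 25 μg/mL kanamycin plus 100 μg/mL carbenicillin, 50 μM IPTG and 0.2% rhamnose. Pooled colonies were amplicon-sequenced on an Illumina HiSeq 2500, and fitness is the DiMSum error-weighted combination of wild-type-normalised replicate fold changes, kanamycin versus none.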

Row | Sequence | self-splicing fitness (ln) (30 °C) | self-splicing fitness (ln) (37 °C)
1 | GUAAAGCAAUAUUACGGUGG | -2.81 ± 0.11 | -1.48 ± 0.11
2 | CUCCAGCAAUAUUACGUGUU | -3.62 ± 0.13 | -2.31 ± 0.11
3 | GUCCAGCAAUAUUACGCCCC | -1.09 ± 0.18 | -0.607 ± 0.18
4 | GCAGAGCAAUAUUACGCAUU | -3.11 ± 0.16 | -2.3 ± 0.2
5 | CAGGAGCAAUAUUACGUGUA | -4.13 ± 0.27 | -2.83 ± 0.25
6 | GAGCAGCAAUAUUACGUAUU | -2.62 ± 0.066 | -1.32 ± 0.075
7 | GACCAGCAAUAUUACGGGCA | -0.306 ± 0.078 | 0.16 ± 0.096
8 | UCAAAGCAAUAUUACGAUGU | -1.09 ± 0.074 | -0.341 ± 0.081
9 | AUACAGCAAUAUUACGUAGC | -3.19 ± 0.21 | -2.45 ± 0.23
10 | CGGUAGCAAUAUUACGAGAG | -3.4 ± 0.19 | -0.673 ± 0.11
11 | CCUAAGCAAUAUUACGAACU | -3.44 ± 0.48 | -1.99 ± 0.22
12 | AUUCAGCAAUAUUACGCCUG | -1.95 ± 0.12 | -0.706 ± 0.19
13 | AUCGAGCAAUAUUACGCAGA | -3.09 ± 0.18 | -2.46 ± 0.16
14 | GGGCAGCAAUAUUACGGGGC | -0.887 ± 0.22 | -1.9 ± 0.42
15 | GGAAAGCAAUAUUACGGAGG | -3.5 ± 0.24 | -2.31 ± 0.21
16 | AGAUAGCAAUAUUACGGUUU | -0.692 ± 0.055 | -0.341 ± 0.076
17 | AGAAAGCAAUAUUACGCGAU | -3.37 ± 0.17 | -1.63 ± 0.13
18 | CUGGAGCAAUAUUACGCGCG | -2.2 ± 0.14 | -0.917 ± 0.13
19 | AGAGAGCAAUAUUACGUCCU | -2.25 ± 0.12 | -0.89 ± 0.13
20 | UGUCAGCAAUAUUACGGGAG | -2.78 ± 0.17 | -1.68 ± 0.14
21 | AUGUAGCAAUAUUACGUUCG | -0.997 ± 0.095 | -0.356 ± 0.12
22 | ACAAAGCAAUAUUACGGACU | -0.0658 ± 0.051 | 0.338 ± 0.079
23 | AUAGAGCAAUAUUACGGUGA | -1.49 ± 0.15 | -1.41 ± 0.19
24 | CUAAAGCAAUAUUACGCUGC | -3.7 ± 0.47 | -2.53 ± 0.42
25 | ACCCAGCAAUAUUACGACCA | -0.474 ± 0.1 | -0.703 ± 0.14

Row | Sequence | self-splicing fitness (ln) (30 °C) | self-splicing fitness (ln) (37 °C)
26 | GAUUAGCAAUAUUACGCAGA | -3.16 ± 0.23 | -1.16 ± 0.16
27 | CUACAGCAAUAUUACGCGAU | -2.35 ± 0.095 | -0.252 ± 0.092
28 | GUCUAGCAAUAUUACGGCCA | -1.87 ± 0.35 | -0.587 ± 0.22
29 | CUCAAGCAAUAUUACGACCU | -2.96 ± 0.15 | -1.34 ± 0.17
30 | CGAUAGCAAUAUUACGUCAU | -2.2 ± 0.15 | -2.02 ± 0.18
31 | ACUUAGCAAUAUUACGAUAU | -1.62 ± 0.087 | -1.18 ± 0.11
32 | GUGAAGCAAUAUUACGAGAG | -2.92 ± 0.11 | -1.7 ± 0.1
33 | GGCGAGCAAUAUUACGGCCU | -2.45 ± 0.23 | 
34 | CCAGAGCAAUAUUACGGUGC | -2.81 ± 0.14 | -2.28 ± 0.23
35 | AGUGAGCAAUAUUACGCUGU | -3.12 ± 0.25 | -1.64 ± 0.18
36 | ACAAAGCAAUAUUACGAUCG | -0.241 ± 0.074 | 0.193 ± 0.095
37 | UCACAGCAAUAUUACGAGAG | -3.55 ± 0.16 | -2.63 ± 0.19
38 | GUGUAGCAAUAUUACGUAGU | -2.99 ± 0.18 | -1.37 ± 0.17
39 | CAGGAGCAAUAUUACGUAGA | -3.42 ± 0.28 | -1.56 ± 0.21
40 | AAAUAGCAAUAUUACGCUUC | -3.19 ± 0.3 | -2.99 ± 0.3
41 | GAGCAGCAAUAUUACGAACU | -1.17 ± 0.12 | -0.227 ± 0.17
42 | CAGCAGCAAUAUUACGCGAG | -2.74 ± 0.15 | -1.7 ± 0.15
43 | GGUUAGCAAUAUUACGCCGG | -2.48 ± 0.5 | -3.55 ± 0.42
44 | AACCAGCAAUAUUACGUAAC | -2.5 ± 0.094 | -1.15 ± 0.11
45 | CUCAAGCAAUAUUACGAUUC | -4.11 ± 0.27 | -2.26 ± 0.24
46 | UCUUAGCAAUAUUACGACGC | -2.07 ± 0.28 | -1.02 ± 0.23
47 | UAUCAGCAAUAUUACGGGAG | -1.83 ± 0.087 | -1.17 ± 0.098
48 | CCAUAGCAAUAUUACGCACU | -3.41 ± 0.4 | -3.05 ± 0.34
49 | CGAUAGCAAUAUUACGUCCU | -1.29 ± 0.16 | -0.541 ± 0.19
50 | UCGAAGCAAUAUUACGUUUU | -3.28 ± 0.14 | -3.09 ± 0.29

Row | Sequence | self-splicing fitness (ln) (30 °C) | self-splicing fitness (ln) (37 °C)
51 | AGCCAGCAAUAUUACGUUCA | -3.21 ± 0.15 | -2.72 ± 0.18
52 | UUACAGCAAUAUUACGGUGC | -3.23 ± 0.21 | -1.92 ± 0.17
53 | UUCCAGCAAUAUUACGGGUG | -0.109 ± 0.058 | -0.15 ± 0.076
54 | CGGGAGCAAUAUUACGGUGG | -3.1 ± 0.37 | -2.43 ± 0.45
55 | CCCGAGCAAUAUUACGUACC | -2 ± 0.21 | 
56 | GAUGAGCAAUAUUACGACAU | -1.797 ± 0.016 | -1.02 ± 0.034
57 | ACGCAGCAAUAUUACGAUCA | -1.66 ± 0.099 | -1.26 ± 0.093
58 | CCCGAGCAAUAUUACGUACU | -3.49 ± 0.24 | -1.24 ± 0.14
59 | UUUGAGCAAUAUUACGUGCU | -3.64 ± 0.16 | -2.84 ± 0.2
60 | AGCCAGCAAUAUUACGUACA | -3.16 ± 0.22 | -2.5 ± 0.27
61 | GAUGAGCAAUAUUACGGGAG | -3.76 ± 0.25 | -1.54 ± 0.41
62 | GGACAGCAAUAUUACGACGU | -0.177 ± 0.06 | 0.587 ± 0.075
63 | AUAGAGCAAUAUUACGGGUU | -2.43 ± 0.16 | -1.1 ± 0.17
64 | AGGUAGCAAUAUUACGUACG | -1.19 ± 0.015 | -0.48 ± 0.034
65 | CUCCAGCAAUAUUACGCACC |  | -2.4 ± 0.45
66 | AGAGAGCAAUAUUACGAAAU | -3.71 ± 0.33 | -1.89 ± 0.24
67 | AGCUAGCAAUAUUACGAUCG | -1.81 ± 0.16 | -0.102 ± 0.18
68 | UCCAAGCAAUAUUACGGCGG | -1.42 ± 0.079 | -0.773 ± 0.092
69 | AGGAAGCAAUAUUACGCAAG | -3.11 ± 0.22 | -1.45 ± 0.13
70 | UAUUAGCAAUAUUACGGUUC | -3.84 ± 0.39 | -3 ± 0.29
71 | CUCUAGCAAUAUUACGGAAC | -2.81 ± 0.47 | 
72 | AGUAAGCAAUAUUACGGCCA | -0.532 ± 0.14 | -0.74 ± 0.16
73 | UGUGAGCAAUAUUACGUCGG | -2.11 ± 0.2 | -1.35 ± 0.29
74 | UCCUAGCAAUAUUACGUAGU | -2.62 ± 0.15 | -1.29 ± 0.18
75 | GGAAAGCAAUAUUACGAAUG | -3.53 ± 0.29 | -0.816 ± 0.25

Row | Sequence | self-splicing fitness (ln) (30 °C) | self-splicing fitness (ln) (37 °C)
76 | GUCCAGCAAUAUUACGGCAU | -0.147 ± 0.085 | -0.171 ± 0.093
77 | GCUCAGCAAUAUUACGUAAG | -0.791 ± 0.043 | -0.374 ± 0.067
78 | GCCCAGCAAUAUUACGUAAG | -1.15 ± 0.072 | -0.871 ± 0.1
79 | UGCUAGCAAUAUUACGGGCA | -3.8 ± 0.25 | -2.02 ± 0.19
80 | AACGAGCAAUAUUACGAACU | -1.11 ± 0.13 | -1.42 ± 0.16
81 | UCGUAGCAAUAUUACGAUUU | -3.1 ± 0.25 | -2.4 ± 0.24
82 | UGUGAGCAAUAUUACGGGUU | -3.22 ± 0.31 | -1.59 ± 0.28
83 | AGAAAGCAAUAUUACGACCU | 0.52 ± 0.099 | 0.265 ± 0.11
84 | AUGAAGCAAUAUUACGAGCU | -1.52 ± 0.12 | -0.173 ± 0.14
85 | UGCAAGCAAUAUUACGCCAA | -1.67 ± 0.34 | -0.657 ± 0.19
86 | ACCGAGCAAUAUUACGUAUU | -3.21 ± 0.16 | -1.98 ± 0.17
87 | CAGAAGCAAUAUUACGUCAA | -2.46 ± 0.27 | -2.24 ± 0.26
88 | CGGGAGCAAUAUUACGAAGU |  | -1.89 ± 0.43
89 | CACAAGCAAUAUUACGGACG | -0.358 ± 0.046 | 0.611 ± 0.072
90 | GCGGAGCAAUAUUACGUCAG | -3.19 ± 0.31 | -2.38 ± 0.35
91 | CUUUAGCAAUAUUACGGCGC | -2.73 ± 0.37 | 
92 | CCGCAGCAAUAUUACGGCCU | -3.67 ± 0.42 | -2.88 ± 0.24
93 | GCACAGCAAUAUUACGUAUU | -1 ± 0.047 | -0.335 ± 0.057
94 | UCCUAGCAAUAUUACGCGCG | -4.03 ± 0.29 | -2.45 ± 0.31
95 | UAGAAGCAAUAUUACGGUCU | -0.542 ± 0.11 | 0.318 ± 0.11
96 | CGGCAGCAAUAUUACGGACG | -2.73 ± 0.21 | -2.42 ± 0.28
97 | AAUAAGCAAUAUUACGCACA | -0.471 ± 0.099 | 0.253 ± 0.13
